Here are results for two molecules from US20100330158A1, “PROTEIN-ASSISTED DRUG DELIVERY SYSTEM FOR THE TARGETED ADMINISTRATION OF ACTIVE AGENTS” (InnoPharma, LLC, priority 2009, published 2010).

The subject of this assay is bovine brain microvascular endothelial cells (BBMVECs). The experiment in a line: Flow cytometry binding of FITC-labeled proteins to BBMVECs. The note with it: for shift in fluorescence: FITC-labeled protein incubated with BBMVECs at 4° C. (on ice) for 15 minutes; for % of the cells that bind (strongly) to the protein: BBMVECs, 15 minutes. How it is done:
The three E. coli recombinant proteins (SfaS, SfaA, OmpA) produced in Example 1 are labeled with fluorescein isothiocyanate (FITC) to allow fluorescent detection of proteins. The proteins are labeled using the Thermo-Fisher Pierce FITC labeling kit (Thermo Fisher Scientific Inc., Waltham, Mass.) according to the manufacturer's protocol. The amounts of protein used for the labeling reaction are 0.75 mg (SfaS), 0.8 mg (OmpA) and 1.25 mg (SfaA).
Flow cytometry is performed by incubating the labeled proteins with BBMVECs. These cells are procured from Cell Applications, Inc (San Diego, Calif.). Cells are mixed with FITC proteins (individually) and incubated on ice or at 37° C. for 15 minutes, then washed, and sorted with flow cytometry.
(In general: In flow cytometry, cells or beads pass a laser one at a time.)

B1: SfaS: Recombinant His-tagged S fimbriae protein sfaS variant from E. coli CFT073, SEQ ID NO: 2 (protein)
chain: MASMTGGQQMGRGSMVDTTITVTGRVLPRTCTIGNGGNPNATVVLDNAYTSDLIAANSTSQWKNFSLTLTNCQNVNNVTATFGGTAENTNYYRNTGDATNIMVELQEQGNGNTPLKVGSTKVVTVSNGQATFNLKVRAVSKGNAGAGSINSQITVTYTYALEHHHHHH
modifications: His tag; E. coli
Take B1: the shift in fluorescence entry was “less significant shift”.

B2: SfaA: Recombinant His-tagged S fimbriae protein sfaA variant from E. coli CFT073, SEQ ID NO: 4 (protein)
chain: MKYLLPTAAAGLLLLAAQPAMAMDIGINGTGSMGTVHFKGEVVNAACAVNTNSFDQTVNLGQVRSERLKVDGAKSNPVGFTIELNDCDSQVSAGAGIVFSGPAVTGKTDVLALQSSAAGSATNVGVQTDHTGKVVPLDGTASSTFTLTDGTNKIPFQAVYYATGQATAGIANADATFKVQYQLEHHHHHH
modifications: His tag; E. coli
Take B2: the shift in fluorescence entry is reported as “significant shift”. For the same molecule, the “% of the cells that bind (strongly) to the protein” value (4° C. (on ice)) is on record as around 37%. Besides, the “% of the cells that bind (strongly) to the protein” value (37° C.) is around 10%.
